Results reported in the supplement of paper PMC9112550, “Optimization of the antimicrobial peptide Bac7 by deep mutational scanning” (BMC Biology, 2022).

System: Escherichia coli TOP10
Assay: shrunken log2 fold change of peptide-encoding DNA abundance (4.5 h post-induction vs induction); higher = less antimicrobial activity (less host growth inhibition)
Conditions: time post-induction: 4.5 h; library: site-saturation at positions 5, 18, 19, 20
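Further: peptides expressed intracellularly from a pBAD plasmid library in pooled LB shake-flask culture, induced with 0.3% L-arabinose, DNA abundance read by NGS, three biological replicates, DESeq2 with apeglm shrinkage.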

Sequence	shrunken log2 fold change
RRIRERPPRLPRPRPRPKHWPRP	0.0518
RRIRFRPPRLPRPRPRPMGMPRP	-0.0492
RRIRIRPPRLPRPRPRPPVIPRP	-0.108
RRIRARPPRLPRPRPRPLKEPRP	0.218
RRIRIRPPRLPRPRPRPWYSPRP	-0.821
RRIRGRPPRLPRPRPRPYYDPRP	-0.294
RRIRSRPPRLPRPRPRPNHCPRP	-0.415
RRIRNRPPRLPRPRPRPYCYPRP	-1.44
RRIRPRPPRLPRPRPRPQSGPRP	0.259
RRIRRRPPRLPRPRPRPGPAPRP	0.562
RRIRVRPPRLPRPRPRPTWPPRP	0.446
RRIRSRPPRLPRPRPRPIYWPRP	-0.0771
RRIRQRPPRLPRPRPRPVDRPRP	-0.0864
RRIRDRPPRLPRPRPRPARAPRP	0.928
RRIRNRPPRLPRPRPRPHVQPRP	-0.0883
RRIRQRPPRLPRPRPRPPHKPRP	1.25
RRIRVRPPRLPRPRPRPQYYPRP	-0.238
RRIRCRPPRLPRPRPRPSEKPRP	-0.188
RRIRNRPPRLPRPRPRPCEGPRP	0.111
RRIRTRPPRLPRPRPRPKNEPRP	0.715
RRIRKRPPRLPRPRPRPNMMPRP	0.172
RRIRNRPPRLPRPRPRPRLCPRP	0.121
RRIRMRPPRLPRPRPRPMWCPRP	0.283
RRIRNRPPRLPRPRPRPGCYPRP	-0.24
RRIRWRPPRLPRPRPRPWRKPRP	-0.139

Sequence	shrunken log2 fold change
RRIRLRPPRLPRPRPRPLFQPRP	-0.322
RRIRFRPPRLPRPRPRPSTGPRP	-0.787
RRIRTRPPRLPRPRPRPWVEPRP	-0.297
RRIRSRPPRLPRPRPRPNAFPRP	-0.0168
RRIRIRPPRLPRPRPRPTKGPRP	0.0205
RRIRQRPPRLPRPRPRPWHRPRP	-0.0346
RRIRERPPRLPRPRPRPAHPPRP	-0.0581
RRIRSRPPRLPRPRPRPDFCPRP	0.0315
RRIRFRPPRLPRPRPRPINGPRP	-0.0164
RRIRIRPPRLPRPRPRPHLSPRP	-0.0549
RRIRPRPPRLPRPRPRPLYWPRP	-0.0211
RRIRIRPPRLPRPRPRPECTPRP	-0.0501
RRIRMRPPRLPRPRPRPDMKPRP	0.182
RRIRARPPRLPRPRPRPIGPPRP	0.537
RRIRRRPPRLPRPRPRPAIQPRP	0.561
RRIRWRPPRLPRPRPRPDNWPRP	0.104
RRIRARPPRLPRPRPRPAWWPRP	0.895
RRIRVRPPRLPRPRPRPESMPRP	-0.149
RRIRPRPPRLPRPRPRPEVGPRP	0.353
RRIRMRPPRLPRPRPRPEEGPRP	0.0237
RRIRARPPRLPRPRPRPLRQPRP	0.736
RRIRYRPPRLPRPRPRPSAYPRP	-0.854
RRIRGRPPRLPRPRPRPTMHPRP	0.715
RRIRGRPPRLPRPRPRPKERPRP	0.00594
RRIRDRPPRLPRPRPRPLALPRP	0.0811

Sequence	shrunken log2 fold change
RRIRVRPPRLPRPRPRPGATPRP	0.277
RRIRIRPPRLPRPRPRPDNQPRP	-1.03
RRIRRRPPRLPRPRPRPAATPRP	0.335
RRIRQRPPRLPRPRPRPPMNPRP	-0.299
RRIRTRPPRLPRPRPRPNHYPRP	-0.679
RRIRIRPPRLPRPRPRPTCYPRP	-0.266
RRIRDRPPRLPRPRPRPYMWPRP	0.0589
RRIRCRPPRLPRPRPRPKAWPRP	0.132
RRIRHRPPRLPRPRPRPNLVPRP	-0.00912
RRIRMRPPRLPRPRPRPDAKPRP	0.937
RRIRVRPPRLPRPRPRPDMHPRP	-0.107
RRIRQRPPRLPRPRPRPSYGPRP	-0.188
RRIRDRPPRLPRPRPRPMFVPRP	-0.0355
RRIRMRPPRLPRPRPRPVMLPRP	-0.28
RRIRERPPRLPRPRPRPPMMPRP	-0.0743
RRIRGRPPRLPRPRPRPWKKPRP	-0.00973
RRIRRRPPRLPRPRPRPYKVPRP	-0.193
RRIRRRPPRLPRPRPRPIECPRP	-0.00663
RRIRERPPRLPRPRPRPSEYPRP	-0.27
RRIRDRPPRLPRPRPRPDLTPRP	0.00118
RRIRKRPPRLPRPRPRPGGLPRP	0.0184
RRIRQRPPRLPRPRPRPYNFPRP	-0.0266
RRIRMRPPRLPRPRPRPMDTPRP	-0.00187
RRIRERPPRLPRPRPRPTSHPRP	-0.239
RRIRERPPRLPRPRPRPCYDPRP	-1.93

Sequence	shrunken log2 fold change
RRIRGRPPRLPRPRPRPCYLPRP	-0.177
RRIRGRPPRLPRPRPRPIDVPRP	0.0296
RRIRLRPPRLPRPRPRPMEHPRP	-0.00579
RRIRRRPPRLPRPRPRPYLVPRP	-0.0711
RRIRKRPPRLPRPRPRPDHWPRP	0.355
RRIRARPPRLPRPRPRPANPPRP	0.425
RRIRTRPPRLPRPRPRPENNPRP	-0.267
RRIRQRPPRLPRPRPRPPERPRP	0.0424
RRIRCRPPRLPRPRPRPALFPRP	0.344
RRIRFRPPRLPRPRPRPQDFPRP	-0.143
RRIRNRPPRLPRPRPRPNAAPRP	-0.149
RRIRTRPPRLPRPRPRPIGDPRP	-0.293
RRIRERPPRLPRPRPRPVACPRP	-0.0696
RRIRERPPRLPRPRPRPTGAPRP	0.316
RRIRVRPPRLPRPRPRPRQCPRP	0.33
RRIRDRPPRLPRPRPRPNMGPRP	0.102
RRIRQRPPRLPRPRPRPNKHPRP	-0.622
RRIRRRPPRLPRPRPRPKPGPRP	0.535
RRIRYRPPRLPRPRPRPVDLPRP	0.0483
RRIRARPPRLPRPRPRPTPTPRP	0.968
RRIRDRPPRLPRPRPRPAQMPRP	1.2
RRIRGRPPRLPRPRPRPGRTPRP	0.498
RRIRERPPRLPRPRPRPVHPPRP	-0.00739
RRIRCRPPRLPRPRPRPSSVPRP	-0.548
RRIRWRPPRLPRPRPRPTCIPRP	0.248

Sequence	shrunken log2 fold change
RRIRVRPPRLPRPRPRPGHKPRP	-0.17
RRIRRRPPRLPRPRPRPENFPRP	-0.0287
RRIRQRPPRLPRPRPRPWMGPRP	0.063
RRIRFRPPRLPRPRPRPGGNPRP	0.149
RRIRYRPPRLPRPRPRPAYDPRP	-0.236
RRIRNRPPRLPRPRPRPTYGPRP	-0.0506
RRIRWRPPRLPRPRPRPIWMPRP	-0.000467
RRIRCRPPRLPRPRPRPFWKPRP	-0.271
RRIRMRPPRLPRPRPRPCVLPRP	-2.47e-05
RRIRIRPPRLPRPRPRPPFFPRP	0.41
RRIRARPPRLPRPRPRPMENPRP	0.423
RRIRMRPPRLPRPRPRPNFNPRP	-0.23
RRIRARPPRLPRPRPRPGGFPRP	0.518
RRIRFRPPRLPRPRPRPVFEPRP	-0.0387
RRIRKRPPRLPRPRPRPMQKPRP	-0.00412
RRIRKRPPRLPRPRPRPGEIPRP	0.0945
RRIRHRPPRLPRPRPRPLHFPRP	-0.0265
RRIRFRPPRLPRPRPRPYCHPRP	-0.687
RRIRIRPPRLPRPRPRPTEHPRP	-0.449
RRIRYRPPRLPRPRPRPSYHPRP	-1.21
RRIRSRPPRLPRPRPRPNAYPRP	-0.696
RRIRTRPPRLPRPRPRPTEGPRP	0.1
RRIRSRPPRLPRPRPRPTKFPRP	0.0549
RRIRDRPPRLPRPRPRPCYTPRP	-0.295
RRIRHRPPRLPRPRPRPTQIPRP	0.51

Sequence	shrunken log2 fold change
RRIRVRPPRLPRPRPRPCSFPRP	0.0114
RRIRERPPRLPRPRPRPAELPRP	-0.187
RRIRCRPPRLPRPRPRPKSDPRP	0.0327
RRIRSRPPRLPRPRPRPGFEPRP	0.418
RRIRKRPPRLPRPRPRPIAFPRP	-0.0784
RRIRMRPPRLPRPRPRPKVNPRP	0.31
RRIRKRPPRLPRPRPRPIFKPRP	0.307
RRIRFRPPRLPRPRPRPMWAPRP	0.0936
RRIRYRPPRLPRPRPRPHDCPRP	-0.00448
RRIRCRPPRLPRPRPRPPCIPRP	0.0428
RRIRERPPRLPRPRPRPREMPRP	0.203
RRIRCRPPRLPRPRPRPDDQPRP	0.23
RRIRLRPPRLPRPRPRPDMNPRP	-0.155
RRIRSRPPRLPRPRPRPCMNPRP	-0.206
RRIRYRPPRLPRPRPRPIIAPRP	-1.18
RRIRWRPPRLPRPRPRPQRDPRP	-0.0245
RRIRDRPPRLPRPRPRPPKWPRP	0.27
RRIRRRPPRLPRPRPRPKNPPRP	0.124
RRIRVRPPRLPRPRPRPHLRPRP	0.248
RRIRARPPRLPRPRPRPYSKPRP	-0.91
RRIRNRPPRLPRPRPRPFHRPRP	-0.211
RRIRQRPPRLPRPRPRPVPAPRP	0.475
RRIRTRPPRLPRPRPRPSDQPRP	-0.183
RRIRNRPPRLPRPRPRPMKNPRP	-0.238
RRIRTRPPRLPRPRPRPDPLPRP	-0.145
